Source: US20080248034A1 (MORPHOTEK, published 2008)

Biological target: tetanus toxoid (TT) (UniProt P04958 2-1315)
Assay: antigen-specific ELISA, coated at 1:500 dilution (FIG. 4B)

Chain of tetanus toxoid (TT) (P04958 2-457 limits assumed, chain 1 of 2): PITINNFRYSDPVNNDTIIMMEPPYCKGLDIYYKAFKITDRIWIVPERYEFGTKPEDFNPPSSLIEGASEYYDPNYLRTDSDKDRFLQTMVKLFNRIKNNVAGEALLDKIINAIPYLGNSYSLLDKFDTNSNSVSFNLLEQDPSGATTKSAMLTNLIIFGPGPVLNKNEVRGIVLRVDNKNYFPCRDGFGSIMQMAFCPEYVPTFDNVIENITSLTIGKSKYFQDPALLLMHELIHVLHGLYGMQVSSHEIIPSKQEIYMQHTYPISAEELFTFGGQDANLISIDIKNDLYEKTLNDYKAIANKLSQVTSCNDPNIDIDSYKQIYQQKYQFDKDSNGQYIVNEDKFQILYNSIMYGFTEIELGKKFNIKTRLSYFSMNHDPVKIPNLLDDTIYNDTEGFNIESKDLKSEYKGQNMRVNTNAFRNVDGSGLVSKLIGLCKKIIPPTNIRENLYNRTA
Chain of tetanus toxoid (TT) (P04958 458-1315 limits assumed, chain 2 of 2): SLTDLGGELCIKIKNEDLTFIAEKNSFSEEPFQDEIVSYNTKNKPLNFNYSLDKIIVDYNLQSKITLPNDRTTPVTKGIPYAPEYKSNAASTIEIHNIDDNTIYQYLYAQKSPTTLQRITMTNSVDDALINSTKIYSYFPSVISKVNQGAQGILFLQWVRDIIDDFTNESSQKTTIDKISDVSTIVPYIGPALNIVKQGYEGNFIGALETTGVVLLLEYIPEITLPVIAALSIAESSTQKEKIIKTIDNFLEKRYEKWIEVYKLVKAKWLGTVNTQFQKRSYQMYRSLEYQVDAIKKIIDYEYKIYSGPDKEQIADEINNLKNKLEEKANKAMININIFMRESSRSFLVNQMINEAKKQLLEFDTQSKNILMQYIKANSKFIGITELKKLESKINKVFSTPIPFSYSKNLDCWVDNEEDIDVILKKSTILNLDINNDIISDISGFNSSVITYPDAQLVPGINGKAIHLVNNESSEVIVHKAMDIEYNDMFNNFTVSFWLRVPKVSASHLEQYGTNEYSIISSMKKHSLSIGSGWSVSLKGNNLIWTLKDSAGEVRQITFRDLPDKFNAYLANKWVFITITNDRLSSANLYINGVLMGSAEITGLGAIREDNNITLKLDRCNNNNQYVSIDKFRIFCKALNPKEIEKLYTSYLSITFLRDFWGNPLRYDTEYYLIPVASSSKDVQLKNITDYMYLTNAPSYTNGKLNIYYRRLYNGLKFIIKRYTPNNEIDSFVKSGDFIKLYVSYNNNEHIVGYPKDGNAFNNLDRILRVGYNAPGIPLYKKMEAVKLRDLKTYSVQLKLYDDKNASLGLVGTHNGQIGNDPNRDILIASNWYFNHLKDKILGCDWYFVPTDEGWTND

B1: Fc-TEM1 (soluble recombinant endosialin: full-length TEM1 extracellular domain fused to monomeric murine IgG2b Fc) (Fc fusion, human)
chain: QDPWAAEPRAACGPSSCYALFPRRRTFLEAWRACRELGGDLATPRTPEEAQRVDSLVGAGPASRLLWIGLQRQARQCQLQRPLRGFTWTTGDQDTAFTNWAQPASGGPCPAQRCVALEASGEHRWLEGSCTLAVDGYLCQFGFEGACPALQDEAGQAGPAVYTTPFHLVSTEFEWLPFGSVAAVQCQAGRGASLLCVKQPEGGVGWSRAGPLCLGTGCSPDNGGCEHECVEEVDGHVSCRCTEGFRLAADGRSCEDPCAQAPCEQQCEPGGPQGYSCHCRLGFRPAEDDPHRCVDTDECQIAGVCQQMCVNYVGGFECYCSEGHELEADGISCSPAGAMGAQASQDLGDELLDDGEDEEDEDEAWKAFNGGWTEMPGILWMEPTQPPDFALAYRPSFPEDREPQIPYPEPTWPPPLSAPRVPYHSSVLSVTRPVVVSATHPTLPSAHQPPVIPATHPALSRDHQIPVIAANYPDLPSAYQPGILSVSHSAQPPAHQPPMISTKYPELFPAHQSPMFPDTRVAGTQTTTHLPGIPPNHAPLVTTLGAQLPPQAPDALVLRTQATQLPIIPTAQPSLTTTSRSPVSPAHQISVPAATQPAALPTLLPSQSPTNQTSPISPTHPHSKAPQIPREDGPSPKLALWLPSPAPTAAPTALGEAGLAEHSQRDDRWLDDDD
notes: extracellular domain; Monomeric secreted fusion protein made in CHO cells; also called TEM1-Fcγ; not shown: murine IgG2b Fcγ domain (hinge through CH3), modified: the four cysteine residues responsible for inter-heavy chain disu
B1: no binding (tested: 5, 10, 50 ug/ml).
